Format in all cases: physicochemical
A short description of data set [1]: Modified Wilhelmy surface balance (Langmuir trough): dynamic surface tension versus compressed surface area. The conditions noted are these: for Surface activity of admixtures, in words: data of Tables 2 and 3 (Wilhelmy balance, King-Clements, pulsating bubble); for Wilhelmy-Langmuir Trough Equilibrum (equilibrium adsorption value): after a three (3) minute spreading time, total peptide 0.5 mg/ml; for Wilhelmy-Langmuir Trough Equilibrum (equilibrium adsorption value) / Wilhelmy-Langmuir Trough Max (maximum dynamic surface tension) / Wilhelmy-Langmuir Trough Min (minimum dynamic surface tension): 37° C.; for Wilhelmy-Langmuir Trough Max (maximum dynamic surface tension) / Wilhelmy-Langmuir Trough Min (minimum dynamic surface tension): peptide/lipid admixture, total peptide 0.5 mg/ml (two peptides: 0.25 mg/ml each), 675 μg phospholipid, seven compression-expansion cycles, average of 3 runs. The text has this: The dynamic surface tension lowering properties of the peptide/lipid admixtures were studied using a modified Wilhelmy Surface Balance (Langmuir Trough). The instrument consists of an all Teflon trough and movable Teflon ribbon (dam) barrier system which completely contains and defines a variable surface area. Surface area was varied through the use of a constant rate reversible 3-phase motor to drive the Teflon barrier. A Cahn 2000 electrobalance (Cahn Instruments, Cerittos, CA) with a sandblasted 1 cm platinum plate and stainless steel hangdown wire was employed to determine the surface tension at the liquid-air interface. The entire apparatus was situated in a thermostated incubator set at 45° C. Surface area-surface tension measurements were made by adding 950 ml of 0.15M NaCl to the trough. Subphase temperature was controlled during the measurements at 36°-38° C.
For each experiment 27 ul of peptide/lipid admixture was applied in a random array of 13 (.congruent.2 ul) droplets to the surface of the temperature controlled subphase and allowed to spread spontaneously for 3 minutes. (The 27 ul application corresponds to 675 ug of phospholipid). The trough surface area was then cycled from a maximum (445 sq. cm) to a minimum (178 sq. cm) surface area and back to maximum at a cycling rate of 3 cycles/min (compression ratio 2.5:1). The dynamic surface tension vs surface area was recorded for 7 complete compression-expansion cycles for each application.

A short description of data set [2]: Pulsating bubble surfactometer (PBS) surface tension. The conditions noted are these: after 100 cycles (5 minutes, 20 cycles/minute); phospholipid 1 mg/ml; 37° C.; diluent […] NaCl; mean of triplicate. The procedure: The PBS equipment (Electronetics, Buffalo, N.Y.) used was essentially equivalent to that described in detail by G. Enhorning, J. Appld. Physiol. 43, 198-203, (1977). Recordings were made of the pressure gradient across the wall of a small air bubble, communicating with ambient air by means of a narrow chimney stack, but otherwise entirely surrounded by a 40 ul volume of the peptide/lipid admixture. The admixture concentration employed for these studies was 1 mg/ml total phospholipid (0.02 mg/ml total peptide) and the diluent was 0.15M NaCl. Immediately prior to loading the sample chamber, the diluted samples were sonicated for 15 seconds to remove any gas nuclei.
The pressure drop across the air-water interface was measured during pulsation by a pressure transducer, and the corresponding surface tension determined through the application of Young's law and the Laplace equation. Measurements were all made at 37° C. and the bubble pulsed at 20 cycles/minute to render respectively a maximum (1.1 mm) and a minimum (0.8 mm) bubble diameter. (This compression/expansion corresponds to a 50% change the surface area of the air-water interface).

Data set [3] is described as follows: Adsorption rate, King-Clements system (Wilhelmy balance with stirred round Teflon dish). The settings on record: 10 ml of diluted sample (1:50) added under constant agitation to 70 ml saline subphase; 37° C. The procedure: A procedure similar to that described by Notter, et al., Pediatric Res. 16, 515-519, (1982) was employed to determine the absorption rate in the absence of diffusion resistance. The modified Wilhelmy surface balance as described above was used. However, instead of using a Langmuir trough a round Teflon dish (5.1 cm diameter) was employed. The subphase, 70 ml of 0.15M NaCl, was allowed to equilibrate to 37° C. in the incubator and was continuously stirred with a Teflon coated magnetic stirer. An aliquot of the peptide/lipid admixture containing 5 mg of total phospholipid was dispersed in 10 ml of 0.15M NaCl by vortexing for 10 seconds. This dispersion was then added to the saline subphase. Surface tension lowering was monitored using a strip chart recorder connected to the electrobalance output and data collected for 20 minutes.

Results on four molecules are retold here after patent US5700777A, “Fatty acid - pulmonary surfactant conjugates” (Abbott Laboratories, priority 1995, dated 1997).

As to “C-14 (Myristic acid)-SP-C (FGIPCCPVHLKRLLIVVVVVVLIVVVIVGALLMG; Pulmonary surfactant-associated protein C N-terminal myristic acid; UniProt P11686 24-57, looked up, fragment) [C14 -SPC(1-34), myristic acid (C14) covalently attached to the N-terminal end of synthetic human SP-C(1-34)]”, the “Surface activity of admixtures, in words” value in data set [1] is “unusual surface activity”.
Take “C-16 (Palmitic acid)-SP-C (FGIPCCPVHLKRLLIVVVVVVLIVVVIVGALLMG; Pulmonary surfactant-associated protein C N-terminal palmitic acid; UniProt P11686 24-57, looked up, fragment) [C16 -SPC(1-34)]”: the “Surface activity of admixtures, in words” value in data set [1] is “unusual surface activity”.
In the case of “SPB(53-78): synthetic C-terminal SP-B fragment, sequence based on natural SP-B (YSVILLDTLLGRMLPQLVCRLVLRCS; Pulmonary surfactant-associated protein B; UniProt P07988 253-278, looked up, fragment) [reference compound]”, in data set [1], the “Wilhelmy-Langmuir Trough Equilibrum (equilibrium adsorption value)” value is 40.0 dynes/cm, the “Wilhelmy-Langmuir Trough Max (maximum dynamic surface tension)” value amounted to 49.3 dynes/cm and the “Wilhelmy-Langmuir Trough Min (minimum dynamic surface tension)” value amounted to 0.1 dynes/cm. Moreover, in data set [2], the “Surface Tension Values Maximum (pulsating bubble apparatus)” value is recorded as 55.5 dynes/cm and the “Surface Tension Values Minimum (pulsating bubble apparatus)” value is recorded as 4.9 dynes/cm. Also, the “King-Clements Adsorption (adsorption surface tension)” value in data set [3] is 45.0 dynes/cm.

B1: SPB(1-78): synthetic full length SP-B peptide, sequence based on natural SP-B (peptide, UniProt P07988 201-279, looked up)
Pulmonary …: FPIPLPYCWLCRALIKRIQAMIPKGALAVAVAQVCRVVPLVAGGICQCLAERYSVILLDTLLGRMLPQLVCRLVLRCSM
modifications: Pulmonary surfactant-associated protein B
As to B1, in data set [1], the “Wilhelmy-Langmuir Trough Equilibrum (equilibrium adsorption value)” value is reported as 38.0 dynes/cm, the “Wilhelmy-Langmuir Trough Max (maximum dynamic surface tension)” value is 45.0 dynes/cm and the “Wilhelmy-Langmuir Trough Min (minimum dynamic surface tension)” value is reported as 0.0 dynes/cm. In data set [2], the “Surface Tension Values Maximum (pulsating bubble apparatus)” value was 49.0 dynes/cm and the “Surface Tension Values Minimum (pulsating bubble apparatus)” value is 4.2 dynes/cm. Moreover, in data set [3], the “King-Clements Adsorption (adsorption surface tension)” value is listed as 30.0 dynes/cm.
